Results on eight substances are retold here after US11306156.

Values joined by “and” are separate entries in the source; they are usually repeats but may differ in a detail not shown here. Equal values may be shown once.

Test [1] concerns the target D3H44 light chain F116C_Q124R_T178R with N-terminal HA or FLAG tag. As to the kind of experiment: LCCA (SPR tag readout), L1:L2 DNA 1:3, normalized to 1:1; competing light chain m18.
In test [2] the target is D3H44 light chain Q124E_Q160E_T180E with N-terminal HA or FLAG tag. As to the kind of experiment: LCCA (SPR tag readout), L1:L2 DNA 1:3, normalized to 1:1; competing light chain m17.
Test [3] deals with D3H44 light chain Q38E_Q124E_Q160E_T180E. Put plainly: LCCA, SPR tag readout, L1:L2 DNA 1:3 normalized to 1:1; competitor m20.
In test [4] the target is D3H44 light chain Q124E_Q160E_T180E_C214S. The description is as above.
Test [5] has the same target. As to the kind of experiment: LCCA, SPR tag readout, L1:L2 DNA 1:9 normalized to 1:1; competitor m20.
Test [6] concerns the target D3H44 light chain P44F_S131K. Put plainly: LCCA, SPR tag readout, L1:L2 DNA 1:9 normalized to 1:1; competitor m22.
Test [7] has as its target D3H44 light chain P44F_S131K. Put plainly: LCCA, SPR tag readout, L1:L2 DNA 1:3 normalized to 1:1; competitor m19.
Test [8] addresses D3H44 light chain P44F_S131K. Put plainly: LCCA, SPR tag readout, L1:L2 DNA 1:3 normalized to 1:1; competitor m22.
In test [9] the target is D3H44 light chain Q124R_T178R with N-terminal HA or FLAG tag. Put plainly: LCCA (SPR tag readout), L1:L2 DNA 1:3, normalized to 1:1; competing light chain m16.
In test [10] the target is D3H44 light chain Q124E_V133D with N-terminal HA or FLAG tag. As to the kind of experiment: LCCA (SPR tag readout), L1:L2 DNA 1:3, normalized to 1:1; competing light chain m9.
For test [11], the target named is D3H44 light chain Q124R_T178R with N-terminal HA or FLAG tag. As to the kind of experiment: LCCA (SPR tag readout), L1:L2 DNA 1:9, normalized to 1:1; competing light chain m16.
Test [12] addresses D3H44 light chain Q124E_V133D with N-terminal HA or FLAG tag. As to the kind of experiment: LCCA (SPR tag readout), L1:L2 DNA 1:9, normalized to 1:1; competing light chain m9.
For test [13], the target named is D3H44 light chain Q38E_Q124E_Q160E_T180E. As to the kind of experiment: LCCA, SPR tag readout, L1:L2 DNA 1:3 normalized to 1:1; competitor m26.
Test [14] has as its target D3H44 light chain Q38R_Q124R_Q160K_T178R. Put plainly: LCCA, SPR tag readout, L1:L2 DNA 1:3 normalized to 1:1; competitor m19.
The target of test [15] is D3H44 light chain Q124R_T178R with N-terminal HA or FLAG tag. As to the kind of experiment: LCCA (SPR tag readout), L1:L2 DNA 1:9, normalized to 1:1; competing light chain m10.
Test [16] deals with D3H44 light chain Q124K_T178R with N-terminal HA or FLAG tag. As to the kind of experiment: LCCA (SPR tag readout), L1:L2 DNA 1:9, normalized to 1:1; competing light chain m13.
For test [17], the target named is D3H44 light chain Q124E_T180E with N-terminal HA or FLAG tag. As to the kind of experiment: LCCA (SPR tag readout), L1:L2 DNA 1:3, normalized to 1:1; competing light chain m19.
The target of test [18] is D3H44 light chain Q124R_T178R with N-terminal HA or FLAG tag. Put plainly: LCCA (SPR tag readout), L1:L2 DNA 1:3, normalized to 1:1; competing light chain m10.
The target in test [19] is D3H44 light chain Q124E_T180E with N-terminal HA or FLAG tag. As to the kind of experiment: LCCA (SPR tag readout), L1:L2 DNA 1:3, normalized to 1:1; competing light chain m9.
Test [20] has as its target D3H44 light chain Q124E_T178E_T180E with N-terminal HA or FLAG tag. Described as above.
The target in test [21] is D3H44 light chain Q124E_Q160E_T180E with N-terminal HA or FLAG tag. As to the kind of experiment: LCCA (SPR tag readout), L1:L2 DNA 1:3, normalized to 1:1; competing light chain m12.
Test [22] has as its target D3H44 light chain Q124E_T180E with N-terminal HA or FLAG tag. The description is as above.
The target is the same in test [23]. As to the kind of experiment: LCCA (SPR tag readout), L1:L2 DNA 1:3, normalized to 1:1; competing light chain m15.
In test [24] the target is D3H44 light chain Q124K_T178R with N-terminal HA or FLAG tag. As to the kind of experiment: LCCA (SPR tag readout), L1:L2 DNA 1:3, normalized to 1:1; competing light chain m18.
Test [25] concerns the target D3H44 light chain Q124R_T178R with N-terminal HA or FLAG tag. As to the kind of experiment: LCCA (SPR tag readout), L1:L2 DNA 1:3, normalized to 1:1; competing light chain m13.
The target of test [26] is D3H44 light chain Q124R_T178K with N-terminal HA or FLAG tag. The description is as above.
In test [27] the target is D3H44 light chain Q124K_T178R with N-terminal HA or FLAG tag. The description is as above.
Test [28] concerns the target D3H44 light chain T178R with N-terminal HA or FLAG tag. The description is as above.
Test [29] deals with D3H44 light chain Q124K_T178R with N-terminal HA or FLAG tag. Put plainly: LCCA (SPR tag readout), L1:L2 DNA 1:9, normalized to 1:1; competing light chain m18.
Test [30] deals with D3H44 light chain Q124E_T178E_T180E with N-terminal HA or FLAG tag. As to the kind of experiment: LCCA (SPR tag readout), L1:L2 DNA 1:9, normalized to 1:1; competing light chain m9.
Test [31] addresses D3H44 light chain Q124E_Q160E_T180E with N-terminal HA or FLAG tag. Put plainly: LCCA (SPR tag readout), L1:L2 DNA 1:9, normalized to 1:1; competing light chain m12.
For test [32], the target named is D3H44 light chain Q124E_T180E with N-terminal HA or FLAG tag. Described as above.
Test [33] deals with D3H44 Fab heavy chain Q179K, ABD2-His6 tagged. As to the kind of experiment: LCCA, SPR of light chain tags; L1:L2 DNA 1:3 normalized to 1:1; competing light chain m16.
In test [34] the target is D3H44 Fab heavy chain L143E_K145T_Q179E, ABD2-His6 tagged. The description is as above.
The target of test [35] is D3H44 Fab heavy chain Q179R, ABD2-His6 tagged. Described as above.
Test [36] deals with D3H44 Fab heavy chain Q179K, ABD2-His6 tagged. Put plainly: LCCA, SPR of light chain tags; L1:L2 DNA 1:9 normalized to 1:1; competing light chain m16.
Test [37] concerns the target D3H44 Fab heavy chain L143E_K145T_Q179E, ABD2-His6 tagged. The description is as above.
The target in test [38] is D3H44 Fab heavy chain Q179R, ABD2-His6 tagged. Described as above.
Test [39] deals with D3H44 Fab heavy chain L124W_L143F_K145T_Q179E, ABD2-His6 tagged. As to the kind of experiment: LCCA, SPR of light chain tags; L1:L2 DNA 1:3 normalized to 1:1; competing light chain m14.
For test [40], the target named is D3H44 Fab heavy chain S186K, ABD2-His6 tagged. Put plainly: LCCA, SPR of light chain tags; L1:L2 DNA 1:3 normalized to 1:1; competing light chain m19.
Test [41] concerns the target D3H44 Fab heavy chain L143E_K145T_Q179E, ABD2-His6 tagged. The description is as above.
Test [42] addresses D3H44 Fab heavy chain S186R, ABD2-His6 tagged. The test is described as above.
The target of test [43] is D3H44 Fab heavy chain L143E_K145T_Q179D, ABD2-His6 tagged. The description is as above.

“D3H44 Fab heavy chain A139C_L143E_K145T_Q179E with C-terminal ABD2-His6 tag”: the H1L1:H1L2 normalized median ratio amounted to 89% in [1] and 11% in test [2]. The substance also showed an H1L1:H1L2 normalized median scalar value ln(r1/f1) in [1] of 2.08.
Take D3H44 Fab heavy chain L45P_K145T_Q179E: the H1L1:H1L2 normalized median ratio worked out at 6% in test [3]; 4% in test [4]; 7% in test [5]; 93% in test [6]; 94% in test [7]; 96% in [8]. Moreover, the H2L2:H2L1 normalized median ratio in [3] turned out to be 6%; in test [4], 4%; in test [5], 7%; in test [6], 93%; in [7], 94%; in test [8], 96%. Also, the figures for the H1L1:H1L2 normalized median scalar value ln(r1/f1) in test [6], in test [7] and in test [8] were 2.54, 2.83 and 3.19, respectively.
In the case of “D3H44 Fab heavy chain L143K with C-terminal ABD2-His6 tag”, the H2L2:H2L1 normalized median ratio is 8% in [9], 92% in test [10], 8% in [11] and 92% in test [12].
On to “D3H44 Fab heavy chain Q39E_L143E_K145T_Q179E”, for which, in [13], the H1L1:H1L2 normalized median ratio was found to be 3%. In [14], the H1L1:H1L2 normalized median ratio is 97%; the H1L1:H1L2 normalized median scalar value ln(r1/f1) was 3.58 and 1.58.
Regarding “D3H44 Fab heavy chain Q179K with C-terminal ABD2-His6 tag”, the H2L2:H2L1 normalized median ratio in test [15] was determined as 9%; in test [16] it was 13%; in test [17], 96%; in [18], 8%; in test [19], 96%; in test [20], 92%. For the same substance, the H2L2:H2L1 normalized median ratio in test [21] is 92%; in test [22] it was 96%; in test [23], 96%; in test [1], 6%; in test [24], 8%; in [25], 4%. Also, the H2L2:H2L1 normalized median ratio in [26] is 4%; in test [27], 4%; in [28], 4%; in [2] it was 94%; in test [29], 10%; in test [30], 91%. In addition, the H2L2:H2L1 normalized median ratio was found to be 90% in [31] and 87% in test [32].
With “D3H44 light chain Q124E_T178E, HA or FLAG tagged”, the H2L2:H2L1 normalized median ratio in test [33] stood at 96%; in [35] it was 97%; in test [36], 89%; in test [38], 85%. In addition, the H1L1:H1L2 normalized median ratio worked out at 14% in [34] and 15% in test [37].
For the substance “D3H44 light chain Q124E_V133W_S176T_T178L_T180E, HA or FLAG tagged”, the H2L2:H2L1 normalized median ratio in [39] turned out to be 31%.
For the substance “D3H44 light chain Q124R_T178K, HA or FLAG tagged”, the H2L2:H2L1 normalized median ratio in test [40] and in [42] was 3% throughout. The H1L1:H1L2 normalized median ratio in [41] and in [43] was 84% each time. Moreover, the H1L1:H1L2 normalized median scalar value ln(r1/f1) in test [41] was 1.69; in test [43], 1.63.
